US7348154B2, “IGF binding proteins” (Genentech, Inc., priority 2003, dated 2008)

Key:
[1] = molecular target: T1, native-sequence human IGFBP-3 (Homo sapiens, UniProt P17936, A32G); assay: BIAcore competition: bp15 versus immobilized biotinylated IGF-I and -II for binding to IGFBP-3; conditions: 15 nM to 100 µM bp15, 20 nM IGFBP-3, 1 hour at room temperature
T1 construct: “wild-type IGFBP-3,” and “full-length IGFBP-3” is wild-type human IGFBP-3; made in house; host or cells: E. coli BL21, vector pET21a
T1 sequence (P17936 28-291 A32G): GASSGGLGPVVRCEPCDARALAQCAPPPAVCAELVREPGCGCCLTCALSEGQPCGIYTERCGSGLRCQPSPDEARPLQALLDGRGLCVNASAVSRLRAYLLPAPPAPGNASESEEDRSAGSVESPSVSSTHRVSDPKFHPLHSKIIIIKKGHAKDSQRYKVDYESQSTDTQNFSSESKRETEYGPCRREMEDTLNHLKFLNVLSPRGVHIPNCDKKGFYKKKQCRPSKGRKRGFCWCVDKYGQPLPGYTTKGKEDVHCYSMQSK
Procedure: A total of 15 nM to 100:M bp15 peptide and 20 nM native-sequence human IGFBP-3 were incubated for 1 hour at room temperature before injection over immobilized biotinylated native-sequence human IGF-I and -II.
Competition binding experiments were carried out as follows. 15 nM to 100:M bp15 peptide and 20 nM IGFBP-3 were incubated for 1 hour at room temperature before injection at 20:l/min in PBST over immobilized biotinylated IGF-I and -II. Equilibrium binding data was plotted in GraphPad Prism™ software and fit to a one-site competition-binding model.
(§1) Peptide bp15 ([…]) (SEQ ID NO:11) was identified by phage display (Lowman et al., Biochemistry, 1998, supra). […] Therefore, bp15 was tested to see if it would bind to the miniBP-3 fusion. Compare FIGS. 7 and 8 for competitive binding data for bp15 to IGFBP-3 and to the miniBP-3 fusion, respectively.

[2] = molecular target: T2, miniBP-3 fusion protein (Homo sapiens, UniProt P17936); assay: BIAcore competition: bp15 versus immobilized biotinylated IGF-I for binding to miniBP-3 fusion protein; conditions: 1.17 to 300 µM bp15, 1 µM miniBP-3 fusion; exact affinity not determined due to lack of saturation
T2 construct: made in house; host or cells: E. coli BL21, vector pET21a; purified on IgG Sepharose
T2 sequence (P17936 74-126, added parts left off): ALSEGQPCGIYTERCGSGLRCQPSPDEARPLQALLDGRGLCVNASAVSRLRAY
Procedure: as §1

[3] = molecular target: native-sequence human IGF-I (Homo sapiens, UniProt P05019); assay: BIAcore kinetic analysis of binding to IGF-I
native-sequence human IGF-I, sequence (P05019 49-118 limits assumed): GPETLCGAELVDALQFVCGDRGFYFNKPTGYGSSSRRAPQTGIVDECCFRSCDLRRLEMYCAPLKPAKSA
Procedure: (§2) Two types of chips were prepared for this purpose.
(§3) Carboxymethylated dextran biosensor chips (CM5, BIAcore Inc.) were activated with EDC (N-ethyl-N′-(3-dimethylaminopropyl)-carbodiimide hydrochloride) and NHS(N-hydroxysuccinimide) according to the supplier's instructions. For immobilization, wild-type IGFBP-3 and mutants in 10 mM sodium acetate, pH 4, were injected onto the biosensor chip at a concentration of 0.2 mg/ml to yield approximately 450-700 RU's (resonance-response units) of covalently coupled protein. Unreacted groups were blocked with an injection of 1 M ethanolamine.
(§4) Kinetic measurements were carried out by injecting two-fold serial dilutions of IGF-I or IGF-II in PBST running buffer (PBS, 0.05% TWEEN-20™ buffer, 0.01% sodium azide) at 25° C. using a flow rate of 20 or 50:l/min. IGF concentrations ranged between 0.4 nM and 50 nM for IGFBP-3 and 100 nM to 25:M for miniBP-3 fusion. For both proteins, association and dissociation rates were calculated using a 1:1 Langmuir association model in the BIAcore™ evaluation software. For wild-type IGFBP-3, the equilibrium dissociation constant was calculated as kd/ka. For miniBP-3 fusion, the equilibrium dissociation constant was calculated by plotting equilibrium binding data in GraphPad Prism™ software (GraphPad Software Inc., San Diego, Calif.) and fitting to a one-site binding model.
(§5) Streptavidin-coated chips were conditioned according to the manufacturer's instructions (BIAcore, Inc.) prior to injection of 0.02 mg/ml of biotinylated IGF-I or IGF-II in 10 mM sodium acetate pH 4. Biotinylated IGF-I and IGF-II were prepared using EZ-Link biotinylation reagents according to the manufacturer's instructions (Pierce). Between 100 and 1000 RUs were immobilized on the chip.
(§6) Concentrations were between 250 nM and 32:M.

[4] = molecular target: native-sequence human IGF-II (Homo sapiens, UniProt P01344); assay: BIAcore kinetic analysis of binding to IGF-II
native-sequence human IGF-II, sequence (P01344 25-91 limits assumed): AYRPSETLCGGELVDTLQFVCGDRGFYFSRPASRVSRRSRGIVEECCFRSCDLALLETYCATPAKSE
Procedure: as §2, §3, §4, §5, §6

[5] = IGF-I injected over immobilized wild-type IGFBP-3, 25° C., 1:1 Langmuir model
[6] = wild-type IGFBP-3, calculated as kd/ka
[7] = IGF-II injected over immobilized wild-type IGFBP-3, 25° C., 1:1 Langmuir model

For “SEEVCWPVAEWYLCN (Sequence is synthesized) [bp15]”, the “competition with IGF-I and -II for binding to IGFBP-3” value [1] was “competes with IGF-I and -II for binding to IGFBP-3” and the “binding to miniBP-3 fusion” value [2] was “does bind to the miniBP-3 fusion, but with reduced affinity compared to wild-type IGFBP-3”.
“Wild-type IGFBP-3: wild-type human IGFBP-3 (SEQ ID NO:1 or 12), produced in E. coli and refolded” was tested, and the ka [3, 5] was 715 ± 3.66 ×10^4 M^−1 s^−1, the kd [3, 5] was 7.58 ± 0.07 ×10^−4 s^−1 and the Kd [3, 6] was 110 ± 1 pM. For the same substance, the ka [4, 7] was 348 ± 1.02 ×10^4 M^−1 s^−1, the kd [4, 7] was 4.07 ± 0.05 ×10^−4 s^−1 and the Kd [4, 6] was 120 ± 1 pM.
